Assays:
MS2 coat protein [1] = test: apparent KD of MS2 coat protein, switch ON state; designed switch direction (-1 OFF switch, 1 ON switch): -1; higher = weaker reporter binding; conditions: FMN input: 0 or 200 uM; Eterna round: R93 (includes R88 designs)
Procedure, shortened: (§1)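 In 100 mM Tris-HCl pH 7.5 with 80 mM KCl and 4 mM MgCl2, and without or with constant ligand, SNAP-549-labelled MS2 coat protein was titrated in twofold steps from 0.7 or 1.5 nM to 3 µM. Per-step times went from 0.8–1.5 h down to 10–20 min. The RNA switches were transcribed on-chip from Illumina sequencing clusters, and apparent KD is the per-design median of normalised cluster binding-curve fits.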

MS2 coat protein [2] = test: apparent KD of MS2 coat protein, switch OFF state (with FMN for OFF switches, without FMN for ON switches); designed switch direction (-1 OFF switch, 1 ON switch): -1; higher = weaker reporter binding; conditions: FMN input: 0 or 200 uM; Eterna round: R93 (includes R88 designs)
Procedure, shortened: as §1

| Sequence | apparent KD of MS2 coat protein (MS2 coat protein [1]) [nM] | apparent KD of MS2 coat protein (MS2 coat protein [2]) [nM] |
| --- | --- | --- |
| AAGAACGGAGGAUAUACAUGAGGAUCACCCAUGUAAAAGAAAGAAGGGAAAGAGAAAAGUAGAAGGCCGAAGAA [Usermaatre-setepenamun Pedubast] | 28.1 | 50.8 |
| AAGAACGUAGGAUAUACUAAAGAAAUGAAAAGAAAUAAAGAACAUGAGGAUCACCCAUGUAGAAGGACGAAGAA [Nebdjefare] | 29.1 | 25.2 |
| AAGAACUCAGGAUAUACAUGAAAGAAAGAAAAGAAAAGAAAACAUGAGGAUCACCCAUGUAGAAGGGAGAAGAA [EteRNA is fun!] | 39.7 | 30.6 |
| AAGAACUCAGGAUAUACUAAAGAAAUGAAAAGAAAGAAAGAACAUGAGGAUCACCCAUGUAGAAGGGAGAAGAA [Qareh Khawoserre] | 86.4 | 35.4 |
| AAGAACUGAGGAUAUACAUGAGGAUCACCCAUGUAAAAGAAAGAAAGGGAAAAGAAAAGUAGAAGGCAGAAGAA [Menmaatre-setpenptah Ramesses XI] | 51.1 | 59.4 |
| AAGAAGCAAGGAUAUACAUGAGGAUCACCCAUGUAAAAGAAAGAAAAGGGAAAGAAAAGUAGAAGGUGCGAAAA [Ruby 70] | 29.9 | 51.9 |
| AAGAAGGAAGGAUAUACAUGAAAGAAAGAAAAGAAAAGAAAACAUGAGGAUCACCCAUGUAGAAGGUCCUAGAA [EteRNA is fun!] | 39.6 | 80.5 |
| AAGAAGGAAGGAUAUACAUGAGGAUCACCCAUGUAAAAGAAAGAGGGAAAAGAGAAAAGUAGAAGGUCCAAGAA [Ptolemy V Epiphanes] | 26.5 | 30.3 |
| AAGAAGGGAGGAUAUACAAAAUAAAAGAAAAGAAAGAAAGAACAUGAGGAUCACCCAUGUAGAAGGUCCAAGAA [Imyremeshaw] | 48.1 | 71 |
| AAGAAGUCAGGAUAUGCUGCUCGUCACAAAAGUGAUGAGUAGCAGAAGGGACAUGAGGAUCACCCAUGUAAAAA [Opal 33] | 49.1 | 42 |
| AAGAAGUGAGGAUAUCGAAGACUGUCGAAAAGACAGUCGAACGAGAAGGCACAUGAGGAUCACCCAUGUGGGAA [Marsurpial 65% 6] | 77.1 | 171 |
| AAGAAGUGAGGAUAUGCUGCUCGUCACUUGCGUGAUGAGUAGCAGAAGGCACAUGAGGAUCACCCAUGUAAAAA [Mat - Exaclusion 4 - Eli mod - D2] | 34.8 | 45.7 |
| AAGAAGUGAGGAUAUGUAUCAGUAUAGUUGCCUAUACUGAUGUAGAAGGCACAUGAGGAUCACCCAUGUCCUAA [Exclusion4-cac1] | 21.7 | 30.8 |
| AAGAAUGCAGGAUAUACAUGAGGAUCACCCAUGUAAAAGAAAGAAAGGGAAAAGAAAAGUAGAAGGGCAAAGAA [Usermaatre-setepenamun Osorkon II] | 35.8 | 36.5 |
| AAGAAUGGAGGAUAUACAAGAAAGAAAGAAAAGAAAAGAAAACAUGAGGAUCACCCAUGUAGAAGGCCAUAGAA [EteRNA is fun!] | 24.9 | 13.8 |
| AAGAAUGGAGGAUAUACAUAAAAGAAAGAAAAGAAAAGAAAACAUGAGGAUCACCCAUGUAGAAGGCCAUAGAA [EteRNA is fun!] | 24.6 | 15.3 |
| AAGACUACAGGAUAUACAUGAGGAUCACCCAUGUAACUGACAAGUAGAUGACGGAGAAGUAGAAGGGUAGUCAA [Ruby 36] | 18.5 | 31.8 |
| AAGACUACAGGAUAUACAUGAGGAUCACCCAUGUAACUGACGGAUAGAUGACGGAGAAGUAGAAGGGUAGUCAA [Ruby 38] | 16.9 | 26.4 |
| AAGAGUAGAGGAUAUACGAAAAAAGAGUCGAAAGACUCGGGACAUGAGGAUCACCCAUGUAGAAGGCUACUCAA [Hyphema Seclusion Mod 62% 5] | 22 | 110 |
| AAGAUCAGAGGAUAUACAGAAGGUGAUGAAAACAUCGCCAAACAUGAGGAUCACCCAUGUAGAAGGCUGAUCAA [JL EX2 2] | 119 | 204 |

| Sequence | apparent KD of MS2 coat protein (MS2 coat protein [1]) [nM] | apparent KD of MS2 coat protein (MS2 coat protein [2]) [nM] |
| --- | --- | --- |
| AAGCCACAUGAGGAUCACCCAUGUAAGGAUAUGAACGAAAAUAAAUAAAAAUAAAAGUUCAGAAGGUACAAAAA [66%, Wbt, 23] | 27.1 | 25.3 |
| AAGGAUCGAGGAUAUACAUAGAUACAGAUACAUGUAGACGUACAUGAGGAUCACCCAUGUAGAAGGCGAUCAUA [AJ 27] | 150 | 255 |
| AAGGGACAUGAGGAUCACCCAUGUGAGGAUAUGCUAUGGAAAUAAAAAAUAAAACAUAGCAGAAGGCAUAAAAA [Mat - Exclusion 1 - Eli mod - D38] | 69.3 | 60.5 |
| AAGUCGUUAGGAUAUAUAUGGAUAUACAUUUAUGUAGAACUACAUGAGGAUCACCCAUGUAGAAGGAACGAAUA [AJ 56] | 24.3 | 27.9 |
| AAGUUGCUAGGAUAUACUUGGGCAACAAAUGAACCAAUAUAACAUGAGGAUCACCCAUGUAGAAGGAGCAGAAA [JR_Exc002_Sub301] | 35.2 | 63.5 |
| ACCAAUGGAGGAUAUACAUGAGGAUCACCCAUGUAUAACCUACAUAGGUGAAAAAAAUGUAGAAGGCCAUUGGA [EX3 233: Super Stable 33] | 31.2 | 16.9 |
| ACCGAUCGAGGAUAUACAUGAGGAUCACCCAUGUAACCCAGAAGAAAGGCCUCAGGAUGUAGAAGGCGACGCAA [JR_Exc003_Sub406] | 16.3 | 17.7 |
| AGAAAACAUGAGGAUCACCCAUGUAAGGAUAUGCUGAAAAAACACUGGAAACAGUGCAGCAGAAGGUACAAAGA [Mat - Exclusion 1 - Eli mod - D99] | 22.1 | 43.3 |
| AGAAAACAUGAGGAUCACCCAUGUCAGGAUAUGAAAAAGAAAAGAAAAGAAAGAAGAAUCAGAAGGGACAAGAA [Senedj] | 38.2 | 40.3 |
| AGAAACGUAGGAUAUACAUGAGGAUCACCCAUGUAAAGAAAGAAGGGAGAAAGAAGAAGUAGAAGGACGAAGAA [JR_Exc003_Sub003] | 19.2 | 59.9 |
| AGAAAGCGAGGAUAUACUAAGAAACCUCAAAGAAAGAAGAAACAUGAGGAUCACCCAUGUAGAAGGCGCAAAGA [JR_Exc002_Sub002] | 28.3 | 70.8 |
| AGAAAGUGAGGAUAUACGAAACCAGCCUAAAUGGCUGGAAAGUAGAAGGCACAUGAGGAUCACCCAUGUAAAGA [Ex4 sub 1] | 32.3 | 43.4 |
| AGAUAGUCAGGAUAUACGAACAAGAAAAAAGACGAGAACGGACAUGAGGAUCACCCAUGUAGAAGGGACAAGAA [Diamond 12] | 63 | 37 |
| AGCAAGUCAGGAUAUACGAACAAGACAAAAGACGUGAAGGGACAUGAGGAUCACCCAUGUAGAAGGGACAAGCA [74%, Web mod - With 4 less U's] | 79.1 | 55.8 |
| AGCUAGAGAGGAUAUACAUAAAAAAAAAAAGUCUGAUCCCUACAUGAGGAUCACCCAUGUAGAAGGCUCUGGCA [Ex2 Design 157: Sub-opt 21] | 38.1 | 38.5 |
| AGCUAGCAAGGAUAUGCGAACAUGUCAAAAGACGUGAAGGGACAUGAGGAUCACCCAUGUAGAAGGUGCUAGCA [JL 74% mod 9] | 35.7 | 27.6 |
| AGCUAGUCAGGAUAUACGAAAAUGUCAGAGGCAGUAAGGGAACAUGAGGAUCACCCAUGUAGAAGGGACUAGCA [Diamond 40] | 36.1 | 87.7 |
| AGCUAGUCAGGAUAUACGAACAAGACAAAAGACGUGAAGGGACAUGAGGAUCACCCAUGUAGAAGGGACUAGCA [74%, Web mod - With 2 less U's] | 26.2 | 71.3 |
| AGCUAGUCAGGAUAUACGAACAGGUCAAAAGACCUGAAGGGACAUGAGGAUCACCCAUGUAGAAGGGACUAGCA [Mat - Exclusion 2 - JL mod - D28] | 25.8 | 131 |
| AGCUAGUCAGGAUAUACGAACAUGUCAAAAGACGUGAAGAAACAUGAGGAUCACCCAUGUAGAAGGGACUAGCA [Mat - Exclusion 2 - JL-Eli mod - D50] | 16.7 | 12.4 |

Reference: the supplement of paper PMC9170038
